B1: F-box only protein 4 (Homo sapiens), Q9UKT5 (parent)
chain: MAGSEPRSGTNSPPPPFSDWGRLEAAILSGWKTFWQSVSKERVARTTSREEVDEAASTLTRLPIDVQLYILSFLSPHDLCQLGSTNHYWNETVRDPILWRYFLLRDLPSWSSVDWKSLPDLEILKKPISEVTDGAFFDYMAVYRMCCPYTRRASKSSRPMYGAVTSFLHSLIIQNEPRFAMFGPGLEELNTSLVLSLMSSEELCPTAGLPQRQIDGIGSGVNFQLNNQHKFNILILYSTTRKERDRAREEHTSAVNKMFSRHNEGDDQQGSRYSVIPQIQKVCEVVDGFIYVANAEAHKRHEWQDEFSHIMAMTDPAFGSSGRPLLVLSCISQGDVKRMPCFYLAHELHLNLLNHPWLVQDTEAETLTGFLNGIEWILEEVESKRAR
B2: 14-3-3 protein epsilon (Rattus norvegicus (Rat)), P62260 (parent)
chain: MDDREDLVYQAKLAEQAERYDEMVESMKKVAGMDVELTVEERNLLSVAYKNVIGARRASWRIISSIEQKEENKGGEDKLKMIREYRQMVETELKLICCDILDVLDKHLIPAANTGESKVFYYKMKGDYHRYLAEFATGNDRKEAAENSLVAYKAASDIAMTELPPTHPIRLGLALNFSVFYYEILNSPDRACRLAKAAFDDAIAELDTLSEESYKDSTLIMQLLRDNLTLWTSDMQGDGEEQNKEALQDVEDENQ

Key:
[1] = variants of: B1; conditions: with 1433e_human YWHAE
[2] = variants of: B1; conditions: with 1433e_mouse Ywhae
[3] = variants of: B1; conditions: with 1433e_human YWHAE; remark: listed apart in the source
1433e_rat Ywhae, P62260 = variants of: B1; conditions: with 1433e_rat Ywhae, P62260
fbx4_human FBXO4, Q9UKT5 = variants of: B2; conditions: with fbx4_human FBXO4, Q9UKT5

effect of a mutation on the interaction [1]	effect of a mutation on the interaction [2]	effect of a mutation on the interaction [3]	effect of a mutation on the interaction (1433e_rat Ywhae, P62260)	effect of a mutation on the interaction (fbx4_human FBXO4, Q9UKT5)	Variant
decreasing interaction	disrupting interaction	disrupting interaction	decreasing interaction	–	MAGSEPRRGTNSPPPPFSDWGRLEAAILSGWKTFWQSVSKERVARTTSREEVDEAASTLTRLPIDVQLYILSFLSPHDLCQLGSTNHYWNETVRDPILWRYFLLRDLPSWSSVDWKSLPDLEILKKPISEVTDGAFFDYMAVYRMCCPYTRRASKSSRPMYGAVTSFLHSLIIQNEPRFAMFGPGLEELNTSLVLSLMSSEELCPTAGLPQRQIDGIGSGVNFQLNNQHKFNILILYSTTRKERDRAREEHTSAVNKMFSRHNEGDDQQGSRYSVIPQIQKVCEVVDGFIYVANAEAHKRHEWQDEFSHIMAMTDPAFGSSGRPLLVLSCISQGDVKRMPCFYLAHELHLNLLNHPWLVQDTEAETLTGFLNGIEWILEEVESKRAR [S8R]
–	disrupting interaction	disrupting interaction	decreasing interaction	–	MAGSEPRSGTNAPPPPFSDWGRLEAAILSGWKTFWQSVSKERVARTTSREEVDEAASTLTRLPIDVQLYILSFLSPHDLCQLGSTNHYWNETVRDPILWRYFLLRDLPSWSSVDWKSLPDLEILKKPISEVTDGAFFDYMAVYRMCCPYTRRASKSSRPMYGAVTSFLHSLIIQNEPRFAMFGPGLEELNTSLVLSLMSSEELCPTAGLPQRQIDGIGSGVNFQLNNQHKFNILILYSTTRKERDRAREEHTSAVNKMFSRHNEGDDQQGSRYSVIPQIQKVCEVVDGFIYVANAEAHKRHEWQDEFSHIMAMTDPAFGSSGRPLLVLSCISQGDVKRMPCFYLAHELHLNLLNHPWLVQDTEAETLTGFLNGIEWILEEVESKRAR [S12A]
–	–	–	–	disrupting interaction	MDDREDLVYQAKLAEQAERYDEMVESMKKVAGMDVELTVEERNLLSVAYENVIGARRASWRIISSIEQKEENKGGEDKLKMIREYRQMVETELKLICCDILDVLDKHLIPAANTGESKVFYYKMKGDYHRYLAEFATGNDRKEAAENSLVAYKAASDIAMTELPPTHPIRLGLALNFSVFYYEILNSPDRACRLAKAAFDDAIAELDTLSEESYKDSTLIMQLLRDNLTLWTSDMQGDGEEQNKEALQDVEDENQ [K50E]
